From US20260098059A1 (ENDOMET BIOSCIENCES, published 2026)
Values joined by “and” are separate entries in the source; they are usually repeats but may differ in a detail not shown here. Identical values can stand only once. Bridges are numbered along the chain shown (N, C = ends). Where no end group is shown, it is not given here. [ ]: non-standard residue; d: D form. Cha = N[C@@H](CC1CCCCC1)C(=O)O; Chg = N[C@H](C(=O)O)C1CCCCC1; NMeA = CN[C@@H](C)C(=O)O; Abu = CC[C@H](N)C(=O)O

B1: SEQ ID NO: 425 (peptide)
peptide: WAQXILDEHGQRVWG
HELM: PEPTIDE1{[CCCCCCCCC(=O)[*:2]].W.[meA].Q.[Orn].I.L.D.E.H.[O=C([C@@H](N[*:1])C1CCCCC1)[*:2]].Q.R.V.W.G.[am]}$PEPTIDE1,PEPTIDE1,5:R3-9:R3$$$V2.0
SMILES: CCCCCCCCC(=O)N[C@@H](Cc1c[nH]c2ccccc12)C(=O)N(C)[C@@H](C)C(=O)N[C@@H](CCC(N)=O)C(=O)N[C@H]1CCCNC(=O)CC[C@@H](C(=O)N[C@@H](Cc2c[nH]cn2)C(=O)N[C@H](C(=O)N[C@@H](CCC(N)=O)C(=O)N[C@@H](CCCNC(=N)N)C(=O)N[C@H](C(=O)N[C@@H](Cc2c[nH]c3ccccc23)C(=O)NCC(N)=O)C(C)C)C2CCCCC2)NC(=O)[C@H](CC(=O)O)NC(=O)[C@H](CC(C)C)NC(=O)[C@H]([C@@H](C)CC)NC1=O
B2: SEQ ID NO: 427 (peptide)
peptide: W[NMeA]QEILDKH[Chg]QRVWG-NH2
modifications: lactam 4-8; not fully specified (N-terminus); printed as H17C8C(O)NH-W-NMeA-QE*ILDK*H-Chg-QRVWG-NH2
B3: SEQ ID NO: 419 (peptide)
peptide: AWAQKILDEHGQRVWG
HELM: PEPTIDE1{[ac].[bAla].W.[meA].Q.K.I.L.D.E.H.[O=C([C@@H](N[*:1])C1CCCCC1)[*:2]].Q.R.V.W.G.[am]}$PEPTIDE1,PEPTIDE1,6:R3-10:R3$$$V2.0
SMILES: CC[C@H](C)[C@@H]1NC(=O)[C@@H](NC(=O)[C@H](CCC(N)=O)NC(=O)[C@H](C)N(C)C(=O)[C@H](Cc2c[nH]c3ccccc23)NC(=O)CCNC(C)=O)CCCCNC(=O)CC[C@@H](C(=O)N[C@@H](Cc2c[nH]cn2)C(=O)N[C@H](C(=O)N[C@@H](CCC(N)=O)C(=O)N[C@@H](CCCNC(=N)N)C(=O)N[C@H](C(=O)N[C@@H](Cc2c[nH]c3ccccc23)C(=O)NCC(N)=O)C(C)C)C2CCCCC2)NC(=O)[C@H](CC(=O)O)NC(=O)[C@H](CC(C)C)NC1=O
B4: SEQ ID NO: 423 (peptide)
peptide: WAQXILDEHGQRVWG
HELM: PEPTIDE1{W.[meA].Q.[Orn].I.L.D.E.H.[O=C([C@@H](N[*:1])C1CCCCC1)[*:2]].Q.R.V.W.G.[am]}$PEPTIDE1,PEPTIDE1,4:R3-8:R3$$$V2.0
SMILES: CC[C@H](C)[C@@H]1NC(=O)[C@@H](NC(=O)[C@H](CCC(N)=O)NC(=O)[C@H](C)N(C)C(=O)[C@@H](N)Cc2c[nH]c3ccccc23)CCCNC(=O)CC[C@@H](C(=O)N[C@@H](Cc2c[nH]cn2)C(=O)N[C@H](C(=O)N[C@@H](CCC(N)=O)C(=O)N[C@@H](CCCNC(=N)N)C(=O)N[C@H](C(=O)N[C@@H](Cc2c[nH]c3ccccc23)C(=O)NCC(N)=O)C(C)C)C2CCCCC2)NC(=O)[C@H](CC(=O)O)NC(=O)[C@H](CC(C)C)NC1=O
B5: SEQ ID NO: 245 (peptide)
peptide: XWFLICAWD
HELM: PEPTIDE1{[O=C(CCCCCN[*:1])[*:2]].W.F.L.I.C.A.W.D}$PEPTIDE1,PEPTIDE1,1:R1-9:R3$$$V2.0
SMILES: CC[C@H](C)[C@@H]1NC(=O)[C@H](CC(C)C)NC(=O)[C@H](Cc2ccccc2)NC(=O)[C@H](Cc2c[nH]c3ccccc23)NC(=O)CCCCCNC(=O)C[C@@H](C(=O)O)NC(=O)[C@H](Cc2c[nH]c3ccccc23)NC(=O)[C@H](C)NC(=O)[C@H](CS)NC1=O
B6: SEQ ID NO: 246 (peptide)
peptide: XWFLIXAWD
HELM: PEPTIDE1{[O=C(CCCCCN[*:1])[*:2]].W.F.L.I.[Abu].A.W.D}$PEPTIDE1,PEPTIDE1,1:R1-9:R3$$$V2.0
SMILES: CC[C@@H]1NC(=O)[C@H]([C@@H](C)CC)NC(=O)[C@H](CC(C)C)NC(=O)[C@H](Cc2ccccc2)NC(=O)[C@H](Cc2c[nH]c3ccccc23)NC(=O)CCCCCNC(=O)C[C@@H](C(=O)O)NC(=O)[C@H](Cc2c[nH]c3ccccc23)NC(=O)[C@H](C)NC1=O
B7: SEQ ID NO: 426 (peptide)
peptide: WAQEILDKHGQRVWG
HELM: PEPTIDE1{[ac].W.[meA].Q.E.I.L.D.K.H.[O=C([C@@H](N[*:1])C1CCCCC1)[*:2]].Q.R.V.W.G.[am]}$PEPTIDE1,PEPTIDE1,5:R3-9:R3$$$V2.0
SMILES: CC[C@H](C)[C@@H]1NC(=O)[C@@H](NC(=O)[C@H](CCC(N)=O)NC(=O)[C@H](C)N(C)C(=O)[C@H](Cc2c[nH]c3ccccc23)NC(C)=O)CCC(=O)NCCCC[C@@H](C(=O)N[C@@H](Cc2c[nH]cn2)C(=O)N[C@H](C(=O)N[C@@H](CCC(N)=O)C(=O)N[C@@H](CCCNC(=N)N)C(=O)N[C@H](C(=O)N[C@@H](Cc2c[nH]c3ccccc23)C(=O)NCC(N)=O)C(C)C)C2CCCCC2)NC(=O)[C@H](CC(=O)O)NC(=O)[C@H](CC(C)C)NC1=O
B8: SEQ ID NO: 414 (peptide)
peptide: WAQKILDEHGXRVWG
HELM: PEPTIDE1{[ac].W.[meA].Q.K.I.L.D.E.H.[O=C([C@@H](N[*:1])C1CCCCC1)[*:2]].[Aib].R.V.W.G.[am]}$PEPTIDE1,PEPTIDE1,5:R3-9:R3$$$V2.0
SMILES: CC[C@H](C)[C@@H]1NC(=O)[C@@H](NC(=O)[C@H](CCC(N)=O)NC(=O)[C@H](C)N(C)C(=O)[C@H](Cc2c[nH]c3ccccc23)NC(C)=O)CCCCNC(=O)CC[C@@H](C(=O)N[C@@H](Cc2c[nH]cn2)C(=O)N[C@H](C(=O)NC(C)(C)C(=O)N[C@@H](CCCNC(=N)N)C(=O)N[C@H](C(=O)N[C@@H](Cc2c[nH]c3ccccc23)C(=O)NCC(N)=O)C(C)C)C2CCCCC2)NC(=O)[C@H](CC(=O)O)NC(=O)[C@H](CC(C)C)NC1=O
B9: SEQ ID NO: 417 (peptide)
peptide: WAXKILDEHGQRVWG
HELM: PEPTIDE1{W.[meA].[Aib].K.I.L.D.E.H.[O=C([C@@H](N[*:1])C1CCCCC1)[*:2]].Q.R.V.W.G.[am]}$PEPTIDE1,PEPTIDE1,4:R3-8:R3$$$V2.0
SMILES: CC[C@H](C)[C@@H]1NC(=O)[C@@H](NC(=O)C(C)(C)NC(=O)[C@H](C)N(C)C(=O)[C@@H](N)Cc2c[nH]c3ccccc23)CCCCNC(=O)CC[C@@H](C(=O)N[C@@H](Cc2c[nH]cn2)C(=O)N[C@H](C(=O)N[C@@H](CCC(N)=O)C(=O)N[C@@H](CCCNC(=N)N)C(=O)N[C@H](C(=O)N[C@@H](Cc2c[nH]c3ccccc23)C(=O)NCC(N)=O)C(C)C)C2CCCCC2)NC(=O)[C@H](CC(=O)O)NC(=O)[C@H](CC(C)C)NC1=O
B10: SEQ ID NO: 244 (peptide)
peptide: KWFLIXAWD
HELM: PEPTIDE1{K.W.F.L.I.[Abu].A.W.D}$PEPTIDE1,PEPTIDE1,1:R3-9:R3$$$V2.0
SMILES: CC[C@@H]1NC(=O)[C@H]([C@@H](C)CC)NC(=O)[C@H](CC(C)C)NC(=O)[C@H](Cc2ccccc2)NC(=O)[C@H](Cc2c[nH]c3ccccc23)NC(=O)[C@@H](N)CCCCNC(=O)C[C@@H](C(=O)O)NC(=O)[C@H](Cc2c[nH]c3ccccc23)NC(=O)[C@H](C)NC1=O
B11: SEQ ID NO: 424 (peptide)
peptide: WAQXILDEHGQRVWG
HELM: PEPTIDE1{[ac].W.[meA].Q.[Orn].I.L.D.E.H.[O=C([C@@H](N[*:1])C1CCCCC1)[*:2]].Q.R.V.W.G.[am]}$PEPTIDE1,PEPTIDE1,5:R3-9:R3$$$V2.0
SMILES: CC[C@H](C)[C@@H]1NC(=O)[C@@H](NC(=O)[C@H](CCC(N)=O)NC(=O)[C@H](C)N(C)C(=O)[C@H](Cc2c[nH]c3ccccc23)NC(C)=O)CCCNC(=O)CC[C@@H](C(=O)N[C@@H](Cc2c[nH]cn2)C(=O)N[C@H](C(=O)N[C@@H](CCC(N)=O)C(=O)N[C@@H](CCCNC(=N)N)C(=O)N[C@H](C(=O)N[C@@H](Cc2c[nH]c3ccccc23)C(=O)NCC(N)=O)C(C)C)C2CCCCC2)NC(=O)[C@H](CC(=O)O)NC(=O)[C@H](CC(C)C)NC1=O

target: T1, β-catenin (UniProt P35222 134-665, limits assumed, biotinylated in the SPR and plate assays); assay: competitive FP
T1 construct: also called beta catenin; biotinylated β-catenin
T1 sequence (looked up): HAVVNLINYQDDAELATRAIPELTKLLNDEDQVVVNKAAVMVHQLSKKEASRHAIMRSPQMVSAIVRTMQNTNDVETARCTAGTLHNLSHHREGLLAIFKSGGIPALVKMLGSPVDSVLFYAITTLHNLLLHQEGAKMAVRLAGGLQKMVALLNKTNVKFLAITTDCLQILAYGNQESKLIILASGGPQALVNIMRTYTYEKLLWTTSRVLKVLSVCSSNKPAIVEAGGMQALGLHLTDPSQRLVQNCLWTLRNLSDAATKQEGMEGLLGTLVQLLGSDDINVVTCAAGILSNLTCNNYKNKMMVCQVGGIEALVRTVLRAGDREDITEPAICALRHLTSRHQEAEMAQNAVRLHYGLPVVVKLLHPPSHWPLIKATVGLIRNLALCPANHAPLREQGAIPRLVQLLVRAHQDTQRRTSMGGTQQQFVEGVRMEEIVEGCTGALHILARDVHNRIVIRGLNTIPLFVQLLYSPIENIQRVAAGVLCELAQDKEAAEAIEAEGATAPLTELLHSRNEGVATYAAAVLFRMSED
Description: Fluorescence polarization (FP) is another method used to analyze protein-ligand interactions. This methodology measures the change in fluorescence light emitted by a labelled compound free vs. conjugated to another compound in solution. Upon binding of the fluorescent molecule to a complex, polarization increases because of limited rotation of the fluorescent tracer. Competitive FP is often utilized in drug screens as it is formatted for high throughput screens in a plate format. This immunoassay is performed by introducing a non-conjugated drug to compete for binding to the labelled competitor-ligand complex, leading to a reduction in polarization. […] Exemplary methodology is described in Example 13. Data were analyzed and plotted in Microsoft Excel (Microsoft, Redmond, WA).
Varying concentrations of β-catenin inhibitor candidate (SEQ ID NO: 404) were then added in a series of serial dilutions from 10 nM to 30 uM of inhibitor in different wells of the plate. The fluorescence polarization was read by Infinite M1000 (Tecan, Baldwin Park CA) at excitation wavelength of 470 nm and measured at emission wavelength of 520 nm. […] The experiments were performed three times and data were analyzed and plotted in Microsoft Excel (Microsoft, Redmond, WA).

Binder | Kd
B1 | ≤ 400 nM
B2 | ≤ 400 nM
B3 | ≤ 400 nM
B4 | > 400 nM and ≤ 1000 nM
H-RKKRRQRRR[Peg2]KW[Cha]LI[Abu]AWD-OH [SEQ ID NO: 282/493] | ≤ 400 nM
B5 | ≤ 400 nM
B6 | ≤ 400 nM
B7 | ≤ 400 nM
B8 | ≤ 400 nM
B9 | ≤ 400 nM
B10 | > 400 nM and ≤ 1000 nM
B11 | ≤ 400 nM
